The results in this text go back to paper PMC9213739, “Substrates and Loaded Iron Ions Relative Position Influence the Catalytic Characteristics of the Metalloenzymes Angelica archangelica Flavone Synthase I and Camellia sinensis Flavonol Synthase” (Frontiers in Pharmacology, 2022).

Substrate in this data set: COc1ccc([C@@H]2CC(=O)c3c(O)cc(O)cc3O2)cc1O
The data set is described as follows: UPLC-MS product formation, Lineweaver-Burk. In kind it is biochemical, Camellia sinensis. Conditions: 4'-O-methyl taxifolin formation (main product), Tris-HCl pH 7.5, 23 °C, 1 h, 5 mM 2-mercaptoethanol, 1 mM NADPH, 'separated protein', purification not described. The text has this: UPLC-MS product formation, Lineweaver-Burk on CaFLS

B1: CaFLS (Camellia sinensis) (protein)
chain: MEVERVQALSHVTLHELPAKFIRPAHEQPENSKAIEGVTVPVISLSRPHDVVVDALSKACSEWGFFLITDHGVEPSLIGRLKEVGEEFFKLPQKEKESYANDPSSGSFEGYGTKMTKNFDEKVEWIDYYFHVMHPPKKLNLDMWPKNPSSYRGVTEEYNVEILRTTNKLLELLSEGLGLDGKVLNSSLGGDEIEFEMKINMYPPCPQPELALGVEPHTDMSALTLLIPNDVPGLQVWKDGNWVAVNYLPNALFVHVGDQLEVLSNGKYKSVLHRSLVNKERTRMSWAVFVVPPHEAVIGPLPELIDEKNPAKYSTKTYAEYRYRKFNKIPQ
notes: synthetic gene in pET-28a(+) (NcoI/XhoI), expressed in E. coli BL21(DE3); 331 residues; mutants carry fragments of AnFNS I
For orientation: Km means the concentration of substrate that gives half-maximal velocity. Usually Vmax stands for the top rate of the reaction or transport when substrate is in excess. As usually defined, the kcat is the maximal rate divided by the concentration of active sites. Usually kcat/Km stands for the turnover number divided by the Michaelis constant. Turning to B1, the Km was 55.47 µM, the Vmax amounted to 0.0558 µmol/min/mg, the kcat is 0.0349 s⁻¹ and the kcat/Km amounted to 629 M⁻¹ s⁻¹.
